Assay results as given in US9988424 (DUKE UNIVERSITY, dated 2018).
Read-outs that look alike come from different tables or passages of the source.

Legend:
D.9009SA V1V2 Tags [1] = biological target: T1, D.9009SA V1V2 Tags; assay: ELISA, OD405 at 10 ug/ml mAb
T1 Env construct: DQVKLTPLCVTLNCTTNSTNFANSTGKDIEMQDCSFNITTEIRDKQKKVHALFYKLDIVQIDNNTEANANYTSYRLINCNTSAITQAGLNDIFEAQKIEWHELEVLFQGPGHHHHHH

AE.con gp140CF [2] = biological target: T2, AE.con gp140CF; assay: ELISA, OD405 at 10 ug/ml mAb
T2 construct: also called AE.con.env03 gp140CF

C.1086 gp140 [3] = biological target: T3, C.1086 gp140; assay: ELISA, OD405 at 10 ug/ml mAb
T3 construct: also called C.1086gp140C

A.9004SS V1V2 Tags [4] = biological target: T4, A.9004SS V1V2 Tags; assay: ELISA, OD405 at 10 ug/ml mAb
T4 Env construct: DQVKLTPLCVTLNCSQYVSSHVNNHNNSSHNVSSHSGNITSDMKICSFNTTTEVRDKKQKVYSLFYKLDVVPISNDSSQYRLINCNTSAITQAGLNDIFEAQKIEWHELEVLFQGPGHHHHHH

gp70 B.HXB2/BALV1V2 = biological target: T5, gp70 B.HXB2/BALV1V2 (murine leukemia virus; HIV-1); assay: ELISA, mAb 0.001-100 ug/ml on coated V1V2 scaffold, OD450
T5 chain: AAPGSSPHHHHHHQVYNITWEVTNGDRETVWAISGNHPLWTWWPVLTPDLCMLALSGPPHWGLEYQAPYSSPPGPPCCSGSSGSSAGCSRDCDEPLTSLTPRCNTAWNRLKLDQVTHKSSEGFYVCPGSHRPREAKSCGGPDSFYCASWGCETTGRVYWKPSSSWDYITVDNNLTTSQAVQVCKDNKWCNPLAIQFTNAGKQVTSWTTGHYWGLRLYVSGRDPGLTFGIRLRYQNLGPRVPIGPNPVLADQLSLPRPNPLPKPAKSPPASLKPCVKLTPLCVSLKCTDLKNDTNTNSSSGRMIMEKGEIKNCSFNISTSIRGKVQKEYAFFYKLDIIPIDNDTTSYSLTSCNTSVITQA

[5] = biological target: T6, gp70 B.HXB2/BALV1V2/N156QN160Q (murine leukemia virus; HIV-1); assay: as above
T6 chain: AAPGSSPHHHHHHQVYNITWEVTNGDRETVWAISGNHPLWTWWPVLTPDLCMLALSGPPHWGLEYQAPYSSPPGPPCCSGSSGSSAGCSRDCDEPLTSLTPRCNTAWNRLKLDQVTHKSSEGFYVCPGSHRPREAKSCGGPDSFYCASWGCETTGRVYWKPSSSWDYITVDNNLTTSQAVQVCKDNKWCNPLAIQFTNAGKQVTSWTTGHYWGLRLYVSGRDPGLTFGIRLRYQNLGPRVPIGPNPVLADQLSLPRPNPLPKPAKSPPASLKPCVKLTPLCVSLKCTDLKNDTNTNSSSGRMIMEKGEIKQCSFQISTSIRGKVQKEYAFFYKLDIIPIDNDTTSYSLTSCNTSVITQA

[6] = biological target: T7, J08 A.92RW020V1V2/N156QN160Q (HIV-1); assay: as above
T7 construct: also called J08 A.92RW020VV1V2/N156QN160Q

J08 B.HXB2/BALV1V2 = biological target: T8, J08 B.HXB2/BALV1V2 (HIV-1); assay: as above
T8 construct: also called J08 B.HXB/BAL V1V2
T8 chain: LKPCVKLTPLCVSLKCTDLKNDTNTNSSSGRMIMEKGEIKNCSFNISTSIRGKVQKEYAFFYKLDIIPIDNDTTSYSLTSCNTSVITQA

[7] = biological target: T9, J08 B.HXB2/BALV1V2N156QN160Q (HIV-1); assay: as above
T9 chain: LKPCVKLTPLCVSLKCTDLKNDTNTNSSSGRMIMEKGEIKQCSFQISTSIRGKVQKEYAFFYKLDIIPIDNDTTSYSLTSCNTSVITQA

B. 681-7 gp140C = assay: ELISA, OD405
D.9009SA V1V2 Tags [8] = biological target: T1, D.9009SA V1V2 Tags; assay: ELISA, OD405
C.1086 gp120 = C.1086 gp120 (HIV-1); assay: ELISA, OD405
B.HXB/BAL gp140CFI = biological target: T10, B.HXB/BAL gp140CFI (HIV-1, UniProt P04578 33-680); assay: ELISA, OD405
T10 construct: also called B.HxB/Ba gp140 CFI

G.con gp140CF = biological target: T11, G.con gp140CF; assay: ELISA, OD405
T11 construct: also called G.con.env03 gp140CF

B.63521 gp140C = assay: ELISA, OD405
AE.con gp140CF [9] = biological target: T2, AE.con gp140CF; assay: ELISA, OD405
C.1086 gp140 [10] = biological target: T3, C.1086 gp140; assay: ELISA, OD405
A.9004SS V1V2 Tags [11] = biological target: T4, A.9004SS V1V2 Tags; assay: ELISA, OD405
B.63521_V1V2 Tags = biological target: T12, B.63521_V1V2 Tags; assay: ELISA, OD405
T12 Env construct: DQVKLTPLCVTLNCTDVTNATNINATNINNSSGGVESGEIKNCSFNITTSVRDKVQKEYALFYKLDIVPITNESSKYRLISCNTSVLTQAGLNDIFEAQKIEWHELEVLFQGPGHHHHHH

B.040 gp140C [12] = assay: ELISA, OD405
B.con gp140CF = biological target: T13, B.con gp140CF; assay: ELISA, OD405
T13 construct: also called B.con.env03 gp140CF

B. 684-6 gp140C = assay: ELISA, OD405
B.040 gp140C [13] = assay: ELISA, OD405; remark: listed apart in the source

B1: CH59 (antibody, V domains shown)
VH: EVQLVESGGGLVQPGRSLRLSCAASGFTFDDGAMHWVRQAPGKGLEWVSGISWNSNIIAYADSVKGRFTISRDNAKNSLYLEMNSLRVEDTALYYCAKDSPRGELPLNYWGQGTLVTVSS
VL: SYELTQPPSVSVSPGQTARITCSGDALPKNYAYWYQQKSGQAPVLVIYEDSKRPSGIPERFSGSSSGTMATLTISGAQVEDEADYYCYSTDSSGNHRVFGGGTKLTVL
notes: also called mAb CH59
B1: binds (D.9009SA V1V2 Tags [1]); binds (AE.con gp140CF [2]); binds (C.1086 gp140 [3]). B1: binds (A.9004SS V1V2 Tags [4]); no binding (tested: 100 ug/ml) (gp70 B.HXB2/BALV1V2); no binding (tested: 100 ug/ml) [5]. B1: no binding (tested: 100 ug/ml) [6]; no binding (tested: 100 ug/ml) (J08 B.HXB2/BALV1V2); no binding (tested: 100 ug/ml) [7].

B2: CH59 reverted unmutated ancestor antibody (antibody, V domains shown)
VH: EVQLVESGGGLVQPGRSLRLSCAASGFTFDDYAMHWVRQAPGKGLEWVSGISWNSGSIGYADSVKGRFTISRDNAKNSLYLQMNSLRAEDTALYYCAKDSPRGELPFDYWGQGTLVTVSS
VL: SYELTQPPSVSVSPGQTARITCSGDALPKKYAYWYQQKSGQAPVLVIYEDSKRPSGIPERFSGSSSGTMATLTISGAQVEDEADYYCYSTDSSGNHRVFGGGTKLTVL
notes: also called CH59 RUA; CH59_RUA
B2: no binding (tested: 10 ug/ml) (B. 681-7 gp140C); no binding (tested: 10 ug/ml) (D.9009SA V1V2 Tags [8]); no binding (tested: 10 ug/ml) (C.1086 gp120). B2: no binding (tested: 10 ug/ml) (B.HXB/BAL gp140CFI); no binding (tested: 10 ug/ml) (G.con gp140CF); no binding (tested: 10 ug/ml) (B.63521 gp140C). B2: no binding (tested: 10 ug/ml) (AE.con gp140CF [9]); no binding (tested: 10 ug/ml) (C.1086 gp140 [10]); no binding (tested: 10 ug/ml) (A.9004SS V1V2 Tags [11]). B2: no binding (tested: 10 ug/ml) (B.63521_V1V2 Tags); no binding (tested: 10 ug/ml) (B.040 gp140C [12]); no binding (tested: 10 ug/ml) (B.con gp140CF). B2: no binding (tested: 10 ug/ml) (B. 684-6 gp140C).

B3: PG16 (antibody, V domains shown)
VH: QEQLVESGGGVVQPGGSLRLSCLASGFTFHKYGMHWVRQAPGKGLEWVALISDDGMRKYHSDSMWGRVTISRDNSKNTLYLQFSSLKVEDTAMFFCAREAGGPIWHDDVKYYDFNDGYYNYHYMDVWGKGTTVTVSS
VL: QSALTQPASVSGSPGQTITISCNGTSSDVGGFDSVSWYQQSPGKAPKVMVFDVSHRPSGISNRFSGSKSGNTASLTISGLHIEDEGDYFCSSLTDRSHRIFGGGTKVTVL
notes: also called mAb PG16; bnAb PG16
B3: no binding (tested: 10 ug/ml) (B.040 gp140C [13]).
